Laboratory results reported in patent US20200407397A1 (published 2020).

Legend:
recombinant LDHA [1] = target: T1, recombinant LDHA (human, UniProt P00338 1-332)
recombinant LDHA [2] = target: T1, recombinant LDHA; remark: listed apart in the source

IC50 (recombinant LDHA [1]): 82.2 nM
Ki (recombinant LDHA [2]): 57.4 nM
Binder: AQRMNTAFTP [FLCN-10 peptide]
